Experimental data reported in article PMC2241821, “A focused antibody library for selecting scFvs expressed at high levels in the cytoplasm” (BMC Biotechnology, 2007).

Target: T1, αβ tubulin dimer (pig, UniProt P02550;P02554)
T1 construct: source: purified from pig brain
Test: ELISA; tubulin coated on a Nunc Maxisorp 96-well plate; 5-20 μl of cytoplasmic extract of E. coli expressing the scFv; revealed with 9E10 and HRP anti-mouse IgG; also done in presence or absence of 10 mM DTT
Details: one partner purified

Row | binding result | Binder
1 | binds | anti-tubulin scFv E12C (scFv, V domains shown, source: E. coli BL21(DE3)pLysS cytoplasm (pET23NN); in cell extract, and purified (Ni-NTA); not shown: c-myc, C-terminal, kept) VH: EVQLVESGGSLVKPGGSLRLSCAASGFTFSNYSMNWVRQAPGKGLEWISSISGSSRYIYYADFVKGRFTISRDNATNSLYLQMNSLRAEDTAVYYCVRSGGNTFDYWGRGTLVTVSS VL: QSVLTQPASVSGSPGQSITISCAGTSSDVGGYNYVSWYQQHPGKAPKLMIYEDSKRPSGVSNRFSGSKSGNTASLTISGLQAEDEADYYCQQYYRKPWTFGGGTKLAVL
2 | binds | anti-tubulin scFv F1C (scFv, V domains shown, source: E. coli BL21(DE3)pLysS cytoplasm (pET23NN); in cell extract, and purified (Ni-NTA); not shown: c-myc, C-terminal, kept) VH: EVQLVESGGSLVKPGGSLRLSCAASGFTFSNYSMNWVRQAPGKGLEWISSISGSSRYIYYADFVKGRFTISRDNATNSLYLQMNSLRAEDTAVYYCVRGNADGGENWELFDKWGRGTLVTVSS VL: QSVLTQPASVSGSPGQSITISCAGTSSDVGGYNYVSWYQQHPGKAPKLMIYEDSKRPSGVSNRFSGSKSGNTASLTISGLQAEDEADYYCQLYQNTLWTFGGGTKLAVL
